These results are taken from publication PMC5943153 (Molecular microbiology, 2018).

What all share (assay): two-hybrid
For one experiment, the target named is T1, T25-HP0221 (NifU) (Helicobacter pylori strain 26695, UniProt O25009 2-326).
T1 sequence (looked up): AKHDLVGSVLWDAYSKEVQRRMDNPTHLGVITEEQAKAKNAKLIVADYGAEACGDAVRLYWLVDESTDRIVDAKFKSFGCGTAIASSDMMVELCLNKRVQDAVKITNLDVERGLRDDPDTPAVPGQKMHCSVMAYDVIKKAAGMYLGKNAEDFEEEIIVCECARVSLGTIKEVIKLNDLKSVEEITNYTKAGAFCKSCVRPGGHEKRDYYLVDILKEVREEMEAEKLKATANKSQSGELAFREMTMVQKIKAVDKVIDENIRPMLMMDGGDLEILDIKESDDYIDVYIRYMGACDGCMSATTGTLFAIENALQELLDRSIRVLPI

For a further experiment, the target named is T2, HP0221-T25 (NifU) (Helicobacter pylori strain 26695, UniProt O25009 2-326).
T2 sequence (looked up): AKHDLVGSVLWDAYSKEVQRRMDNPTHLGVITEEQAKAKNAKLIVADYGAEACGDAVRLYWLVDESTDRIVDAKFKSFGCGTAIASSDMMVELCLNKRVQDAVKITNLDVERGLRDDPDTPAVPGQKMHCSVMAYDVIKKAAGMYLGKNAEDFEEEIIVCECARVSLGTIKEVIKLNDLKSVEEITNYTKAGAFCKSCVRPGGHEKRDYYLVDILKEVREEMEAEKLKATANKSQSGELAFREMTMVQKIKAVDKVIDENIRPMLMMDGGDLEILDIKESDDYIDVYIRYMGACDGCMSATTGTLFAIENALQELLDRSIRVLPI

A further experiment addresses T3, T25-HP1492 (Nfu) (Helicobacter pylori strain 26695, UniProt O26025 2-89).
T3 sequence (looked up): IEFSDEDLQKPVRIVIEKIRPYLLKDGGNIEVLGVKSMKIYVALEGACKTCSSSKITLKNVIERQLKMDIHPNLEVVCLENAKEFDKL

For a further experiment, the target named is T25-HP0220 (NifS) (Helicobacter pylori strain 26695, UniProt O25008 2-387).

B1: T18-HP0132 (natural protein, Helicobacter pylori strain 26695, UniProt P56072 2-455, looked up)
chain: ASFSILSIFKIGVGPSSSHTIGPMEAGARFCESLKGILEQVVRVQITLHGSLALTGKGHLSDEAVLIGLHGIYANELEVTTKKALLHEALENKVLKLANQHHIPFDYAKDLIFDNKPLTRHQNALILKAFNSKNEVLKEETYYSVGGGFVYTEKELDNLSEEDGNESIAYDFSSAKELLELCQKHQKSIAEIVRLRENALKNHPDATMVKIYHAMLECYDNGANSKERYLPGSLKVTRLAPSIKTRLEKHPTSGKDPLALIDYISLYARAIAEENASGGKVVTAPTNGACAVVPSVLLYAKNHLFENLSQKAINDFLLTSAAIGYLYKKNASLSGAEAGCQAEIGVASSMAAGGLAHLCQATTQQVLIASEIAMEHHLGLTCDPVGGLVQIPCIERNVLGAIKAISASKLALEDEYKPKVSLDEVIATMYATGKDMNEKYKETSLGGLAKTLKC
With B1, the “growth OD595 in M63-maltose” value in the experiment with T25-HP0221 (NifU) was determined as 0.21 OD595; with HP0221-T25 (NifU), 0.14 OD595; with T25-HP1492 (Nfu), 0.27 OD595.

B2: T18-HP0568 (natural protein, Helicobacter pylori strain 26695, UniProt O25292 2-255, looked up)
chain: PLELFEKVCKEVAPLTQMITLHVLGDPCKLKNLNHYLSTARRFSLKVDLVTSGVYLHDFETLLQDVIYQISISLDAGLDHRNKLNQHRYIQKILEFCRYKCEKNSEVFLNLRIQDSTLDKHQNLIKPFLESFECVSLEGLKTQGRARLFKKSFLNIQKTFKWPSLNAQNPLNQKSKIPYCYGLIKQIAILSNGVVVPCCMDTQANISLGDLNHTPLKDVLKSQKAMAIKTHFLKGEALELLCQNCSYPLIRYKK
With B2, the “growth OD595 in M63-maltose” value in the experiment with T25-HP0221 (NifU) worked out at 0.13 OD595; with HP0221-T25 (NifU), 0.36 OD595; with T25-HP1492 (Nfu), 0.14 OD595.

B3: T18-HP0221 (natural protein, Helicobacter pylori strain 26695, UniProt O25009 2-326, looked up)
chain: AKHDLVGSVLWDAYSKEVQRRMDNPTHLGVITEEQAKAKNAKLIVADYGAEACGDAVRLYWLVDESTDRIVDAKFKSFGCGTAIASSDMMVELCLNKRVQDAVKITNLDVERGLRDDPDTPAVPGQKMHCSVMAYDVIKKAAGMYLGKNAEDFEEEIIVCECARVSLGTIKEVIKLNDLKSVEEITNYTKAGAFCKSCVRPGGHEKRDYYLVDILKEVREEMEAEKLKATANKSQSGELAFREMTMVQKIKAVDKVIDENIRPMLMMDGGDLEILDIKESDDYIDVYIRYMGACDGCMSATTGTLFAIENALQELLDRSIRVLPI
Turning to B3, the “growth OD595 in M63-maltose” value with T25-HP0220 (NifS) amounted to 0.12 OD595; with T25-HP1492 (Nfu), 0.08 OD595.

B4: T18-HP0734 (natural protein, Helicobacter pylori strain 26695, UniProt O25434 2-439, looked up)
chain: QVKENKQLCLISLGCSKNLVDSEVMLGKLYNYTLTNDAKSADVILINTCGFIESAKQESIQTILNAAKDKKEGAILIASGCLSERYKDEIKELIPEVDIFTGVGDYDKIDIMIAKKQNQFSEQVFLSEHYNARIITGSSVHAYVKISEGCNQKCSFCAIPSFKGKLQSRELDSILKEVENLALKGYTDMTFIAQDSSSFLYDKGQKDGLIQLIRAIDKQQALKSARILYLYPSSTTLELIGAIESSPIFQNYFDMPIQHISDSMLKKMRRNSSQAHHLKLLDAMKQVKESFIRSTIIVGHPEENESEFEELSAFLDEFQFDRLNIFAFSAEENTHAYSLEKVPKKTINARIKALNKIALKHQNHSFKALLNKPIKALVENKEGEYFYKARDLRWAPEVDGEILINDSELTTPLKPGHYTIAPSEFKDNILLAKVLSPF
With B4, the “growth OD595 in M63-maltose” value with T25-HP0221 (NifU) turned out to be 0.4 OD595; with HP0221-T25 (NifU), 0.48 OD595; with T25-HP1492 (Nfu), 0.12 OD595.

B5: T18-HP1428 (natural protein, Helicobacter pylori strain 26695, UniProt O25970 2-357, looked up)
chain: KASIYDFTLKELSQLLKPSFRAKQLYLWLYAKYKTSFKDMQNNFSKDFIAYLEREFALRTIEITHVRESVDGSKKYLFKSLRDNHTFEAVLLKMKDKKIDAETNAILEREKYTVCVSCQIGCQVGCSFCFTQKGGFVRNLKASEIIQQALLIKEDNNLPLEKALNIVFMGMGEPLNNLDEVCKAIEIFNTGMQISPKRITISTSGVADKIPILAGKNLGVQLAISLHAVDDKTRSSLMPLNKKYNIECVLNEVRKWPLEQRKRVMFEYLLIKDLNDSLDCAKKLLKLLNGIKSKVNLILFNPHEGSKFERPSLENARMFADFLNSKGLLCTIRESKALDIEAACGQLREKKLSQQI
With B5, the “growth OD595 in M63-maltose” value in the experiment with T25-HP0221 (NifU) amounted to 0.15 OD595; in the experiment with HP0221-T25 (NifU) it was 0.27 OD595; with T25-HP1492 (Nfu), 0.08 OD595.

B6: T18-HP0277 (natural protein, Helicobacter pylori strain 26695, UniProt O25054 2-84, looked up)
chain: SLLVNDECIACDACREECPSEAIEEGDPIYNIDPDRCTECYGYDDDEPRCVSVCPVDAILPDPNNAESKEELKYKYESLKEQD
With B6, the “growth OD595 in M63-maltose” value with T25-HP0220 (NifS) came out at 0.3 OD595; in the experiment with T25-HP1492 (Nfu), 0.4 OD595.

B7: T18-HP1540 (natural protein, Helicobacter pylori strain 26695, UniProt O26065 2-167, looked up)
chain: ADIQRRDFLGMSLASVTAIGAIASLVAMKKTWDPLPSVVSAGFTTIDVANMQEGQFSTVEWRGKPVYILKRSKKEGFNEKRDFKVGESVFTTAIQICTHLGCIPTYQDEEKGFLCPCHGGRFTSDGVNIAGTPPPRPFDIPPFKIEGTKITFGEAGAEYKKMMAKA
As to B7, the entries for the “growth OD595 in M63-maltose” value with T25-HP0221 (NifU), with HP0221-T25 (NifU) and with T25-HP1492 (Nfu) were 0.24 OD595, 0.44 OD595 and 0.17 OD595, respectively.

B8: T18-HP1089 (natural protein, Helicobacter pylori strain 26695, UniProt O25721 2-778, looked up)
chain: NLEKLFLEKTPLFVFSSTRRLKHFYLEQGEGFLPNAMSMGNFFEQAFYIPNKKKIPNSARLILMIDTIKAIAKEKKSILEGLLLFENSFLGYLESTSFLFDLFDELSSACIKLNELSSKDIYLDYEKHLEVLEMIYDRYIKKLEGLGFYDKIMQEKPAILKEFFEHFSSIEWHLDGFMSVFERQCLLEAAELVPITLHLSCDKYNQKFLEFLNLKLETDCDYSIDFKTQKILSQTPKRQKIEPKLYANSSYLKQSALVLQTIEEYLQKDNDPNKMAIITPNADFLPFLKLLDKNNNLNFAMGLGAKNSPYYTELVKILEDLETSDLDLSGSALLDLENITLALLEQQSSKEKAPLKEAHSQIMHQYHLLKDTLKNYSLKDLLHLYLQEFEANFRLDDSSGGKIRVMDTLETRGMQFDKIVIVDFNETCVPSLKDCDLFLNSALRKSLNLPTLLDKKNLQKHYYYQLFKNSKEITLSYIESETSKASNMLLELNLHIEPIKDAYTLFAPSPLKDYQEEEIKAAIPKDFSFSASSLNAFLTCKRRFYYHYIKRFKESPKDENNSAVGSLLHELLKEAYEKDKTPHALEERLIWLLETRENITPKERLDTLVVLKKIQAFYKKERERFNAEITILDLEKSFETIIQGVIFKGRIDRIDKTADNEIILLDYKFKSDLKLDSMSKTQRGGLSPIEIAQISTDYQMAIYAFALKNLGYKEPIKAFFYDLRKGELLEEEELILQAKMDHLEFSLIPKLKQEIDFEKTLEVKDCEYCSFKDMCNR
B8: the figures for the “growth OD595 in M63-maltose” value in the experiment with T25-HP0221 (NifU) and with HP0221-T25 (NifU) were 0.26 OD595 and 0.29 OD595, respectively.

B9: T18-HP1268 (natural protein, Helicobacter pylori strain 26695, UniProt O25858 2-220, looked up)
chain: AKQEYKQLPKRAEVHSATEQFKDTVKTSLGLDLFKGLGLTIKEFFSPSVTIHYPMEQLPLSPRYRAVHNLQRLLDSGSERCIGCGLCEKICTSNCIRIITHKGEDNRKKIDSYTINLGRCIYCGLCAEVCPELAIVMGNRFENASTQRSQYGSKSEFLTSEQDAKNCSHAEFLGFGAVSPNYNERMQATPLDYVQEPSKEESQEETPTNPESNKGDENV
As for B9, the “growth OD595 in M63-maltose” value with T25-HP0221 (NifU) came out at 0.33 OD595; in the experiment with HP0221-T25 (NifU), 0.22 OD595; with T25-HP1492 (Nfu) it was 0.18 OD595.

B10: T18-HP0666 (natural protein, Helicobacter pylori strain 26695, UniProt O25377 2-433, looked up)
chain: NENINENIFEEVGDACVKCAKCVPGCTIYRIHKDEATSPRGFLDLMRLNAQNKLQLDTNLKHLLETCFLCTACVEICPFHLPIDTLIEKAREKIAQKHGIAWYKKSYFSLLKNRKKMDRVFSTAHFLAPCVFKQVGDSLEPRAVFKGLFKRFKKSALPPLNQKSFLQKHAEMKLLENPIQKVAIFIGCLSNYHYQQVGESLLYILEKLNIQAIIPKQECCSAPAYFTGDKDTTLFLVKKNIEWFESYLDKVDAIIVPEATCASMLINDYYKVFLGEKDKDLYVKRLEKITPKIYLASVFLEKHTPLKSLLEKIPKGKKETITYHNPCHAKKTLNAHKEVRNLLNLHYEIKEMPDNCCGFGGITMQTQKAGFSLKVGLLRAKEIIDTKAAILSAECGACHMQLNNALKSLDDPNTPPFLHPLELIAKALKSAE
For the molecule B10, the results for the “growth OD595 in M63-maltose” value with T25-HP0221 (NifU) and with HP0221-T25 (NifU) were 0.48 OD595 and 0.11 OD595, respectively.

B11: T18-HP0585 (natural protein, Helicobacter pylori strain 26695, UniProt O25307 2-218, looked up)
chain: KMGLKRAKTHQKAQQIKELLLKHYPNQTTELRHKNPYELLVATILSAQCTDARVNQITPKLFEKYPSVNDLALASLEEVKEIIKSVSYFNNKSKHLISMAQKVVRDFKGVIPSTQKELMSLDGVGQKTANVVLSVCFDANCIAVDTHVFRATHRLGLSNAKDPIKTEEELSDLFKDNLSKLHHALILFGRYTCKAKNPLCGACFLKEFCVSKASFKA
As to B11, the “growth OD595 in M63-maltose” value with T25-HP0221 (NifU) is 0.21 OD595; with HP0221-T25 (NifU) it was 0.15 OD595; with T25-HP1492 (Nfu) it was 0.06 OD595.
